The values below come from publication doi:10.1101/2020.03.02.974154 (bioRxiv, 2020).

This data set concerns the molecule itself. In words: cryo-EM structure.

B1: full-length chicken acid-sensing ion channel 1a (cASIC1a) (natural protein, Gallus gallus, UniProt Q1XA76 1-527, looked up)
chain: MMDLKVDEEEVDSGQPVSIQAFASSSTLHGISHIFSYERLSLKRVVWALCFMGSLALLALVCTNRIQYYFLYPHVTKLDEVAATRLTFPAVTFCNLNEFRFSRVTKNDLYHAGELLALLNNRYEIPDTQTADEKQLEILQDKANFRNFKPKPFNMLEFYDRAGHDIREMLLSCFFRGEQCSPEDFKVVFTRYGKCYTFNAGQDGKPRLITMKGGTGNGLEIMLDIQQDEYLPVWGETDETSFEAGIKVQIHSQDEPPLIDQLGFGVAPGFQTFVSCQEQRLIYLPPPWGDCKATTGDSEFYDTYSITACRIDCETRYLVENCNCRMVHMPGDAPYCTPEQYKECADPALDFLVEKDNEYCVCEMPCNVTRYGKELSMVKIPSKASAKYLAKKYNKSEQYIGENILVLDIFFEALNYETIEQKKAYEVAGLLGDIGGQMGLFIGASILTVLELFDYAYEVIKHRLCRRGKCRKNHKRNNTDKGVALSMDDVKRHNPCESLRGHPAGMTYAANILPHHPARGTFEDFTC
On to B1, for which the “stoichiometry N” value came out at 3.
